{"source": "patent US20240368304A1", "biological_target": "epidermal growth factor receptor variant III (EGFRvIII) on U87EGFRvIII cells (UniProt P00533)", "assay": "cell-based or functional assay"}
{"substance": "2173 CD28zeta CAR (EGFRvIII specific CAR) on transduced primary human T cells", "values": [{"measurement": "% cytolysis (killing) of U87 VIII GFP target cells, xCELLigence eSight impedance", "result": 100, "unit": "%"}, {"measurement": "Human IFN-gamma release from CAR T cells co-cultured with U87 VIII GFP target cells (sandwich ELISA, E:T 10:3)", "result": 4750}]}
